Test results from US8816053B2 (ZymoGenetics, Inc., priority 2004, dated 2014).

T1: zcyto20 (Homo sapiens, UniProt Q8IZJ0)
T1 sequence (Q8IZJ0 26-200): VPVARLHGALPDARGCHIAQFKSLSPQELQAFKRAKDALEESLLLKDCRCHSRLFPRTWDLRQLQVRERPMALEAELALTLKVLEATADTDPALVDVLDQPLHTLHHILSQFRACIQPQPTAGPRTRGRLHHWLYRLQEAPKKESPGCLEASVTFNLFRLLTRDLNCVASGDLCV


Columns and labels:
zcyto20 = target: T1, zcyto20; assay: Inhibition of ligand-induced ISRE signaling by soluble receptors, 293 HEK cells overexpressing zcytor19, ligand zcyto20; format: cell-based; settings: all three ligands together; soluble receptor 10 micrograms/ml
Text: A signal transduction reporter assay can be used to show the inhibitor properties of zcytor19-Fc4 homodimeric and zcytor19-Fc/CRF2-4-Fc heterodimeric soluble receptors on zcyto20, zcyto21 and zcyto24 signaling. Human embryonal kidney (HEK) cells overexpressing the zcytor19 receptor are transfected with a reporter plasmid containing an interferon-stimulated response element (ISRE) driving transcription of a luciferase reporter gene. Luciferase activity following stimulation of transfected cells with ligands (including zcyto20 (SEQ ID NO:18), zcyto21 (SEQ ID NO:20), zcyto24 (SEQ ID NO:8)) reflects the interaction of the ligand with soluble receptor.
The results obtained are shown as the percent inhibition of ligand-induced signaling in the presence of soluble receptor relative to the signaling in the presence of PBS alone.

mouse OAS, Pkr and Mx1 = assay: ISG gene induction in liver, spleen and blood of C57BL/6 mice injected with protein (real-time PCR); format: in vivo; settings: i.p. or i.v., 10 μg-250 μg, 1 hr-48 hr
Procedure: Mice were sacrificed at various time points (1 hr-48 hr). Spleens and livers were isolated from mice, and RNA was isolated. RNA was also isolated from the blood cells. The cells were pelleted and RNA isolated from pellets using RNAEasy®-kit (Qiagen). RNA was treated with DNase (Amicon) to rid RNA of any contaminating DNA. cDNA was generated using Perkin-Elmer RT mix (Perkin-Elmer). ISG gene induction was measured by real-time PCR using primers and probes specific for mouse OAS, Pkr and Mx1. To obtain quantitative data, HPRT real-time PCR was duplexed with ISG PCR. A standard curve was calculated using known amounts of IFN-stimulated mouse PBLs. All data are shown as expression relative to internal HPRT expression.
Results shown are fold expression relative to HPRT gene expression. […] The data shown is the average expression from 5 different animals/group.
Mice were injected with 100 μg of proteins i.v. Data shown is fold expression over HPRT expression from livers of mice. Similar data was obtained from blood and spleens of mice.

OAS activity = OAS activity in serum and plasma of treated mice (OAS radioimmunoassay); format: in vivo, mouse; settings: i.v., 10 μg-250 μg
Procedure: Serum and plasma were isolated from mice at varying time points, and OAS activity was measured using the OAS radioimmunoassay (RIA) kit from Eiken Chemicals (Tokyo, Japan).

adenoviral vector, AdGFP = assay: Adenoviral vector (AdGFP) liver pathology model in C57Bl/6 mice; settings: 50 μg i.p., 7 doses; H&E
Mouse B cells = assay: 3H-thymidine incorporation by mouse B cells; format: cell-based
Procedure: Mouse B cells were isolated from 2 Balb/C spleens (7 months old) by depleting CD43+ cells using MACS magnetic beads. Purified B cells were cultured in vitro with LPS, anti-IgM or anti-CD40 monoclonal antibodies. Mouse IL-28 or mouse IFNα was added to the cultures and ^3H-thymidine was added at 48 hrs. and ^3H-thymidine incorporation was measured after 72 hrs. culture.

[1] = test system: mouse OAS, Pkr and Mx1 in AML-12 cells; assay: ISG induction in the mouse liver cell line AML-12 (real-time PCR); format: cell-based; settings: AML-12, 20 ng/ml, 48 hour time point

Molecule	inhibition of zcyto20, zcyto21 and zcyto24-induced signaling (zcyto20)	ISG gene expression (OAS, Pkr, Mx1) in the livers, spleen and blood of mice (mouse OAS, Pkr and Mx1)	liver and inflammation scores (liver histology) versus the PBS-treated group (adenoviral vector, AdGFP)	further results
HuCRF2-4-Fc: human CRF2-4-Fc homodimeric soluble receptor	No significant effects			
Muzcytor19-Ig: murine zcytor19-Ig homodimeric soluble receptor (protein, left off: a dimerising Fc or GST, murine zcytor19-Ig homodimeric soluble receptor) RPRLAPPRNVTLFSQNFTVYLTWLPGLGSPPNVTYFVTYQSYIKTGWRPVEHCAGIKALVCPLMCLKKLNLYSKFKGRVQAASAHGRSPRVESRYLEYLFDVELAPPTLVLTQMEKILRVNATYQLPPCMPSLELKYQVEFWKEGLGSKTLFPDTPYGQPVQIPLQQGASRRHCLSARTVYTLIDIKYSQFSEPSCIFLEAPGDKRA	No significant effects			
IL-28A: human IL-28A cytokine polypeptide, previous designation zcyto20 (e.g. SEQ ID NO:18, CHO-derived) (protein, listed as Homo sapiens, SIGNAL (1)...(25)) MKLDMTGDCTPVLVLMAAVLTVTGAVPVARLHGALPDARGCHIAQFKSLSPQELQAFKRAKDALEESLLLKDCRCHSRLFPRTWDLRQLQVRERPMALEAELALTLKVLEATADTDPALVDVLDQPLHTLHHILSQFRACIQPQPTAGPRTRGRLHHWLYRLQEAPKKESPGCLEASVTFNLFRLLTRDLNCVASGDLCV		did not induce		
IL-29: human IL-29 cytokine polypeptide, previous designation zcyto21 (e.g. SEQ ID NO:20, CHO-derived) (protein, listed as Homo sapiens, SIGNAL (1)...(19)) MAAAWTVVLVTLVLGLAVAGPVPTSKPTTTGKGCHIGRFKSLSPQELASFKKARDALEESLKLKNWSCSSPVFPGNWDLRLLQVRERPVALEAELALTLKVLEAAAGPALEDVLDQPLHTLHHILSQLQACIQPQPTAGPRPRGRLHHWLHRLQEAPKKESAGCLEASVTFNLFRLLTRDLKYVADGNLCLRTSTHPEST		induced	lower	OAS activity in the serum and plasma of mice (OAS activity): induced
Zcyto24: mouse IL-28 (zcyto24), SEQ ID NO:8 (protein, listed as Mus musculus) MKPETAGGHMLLLLLPLLLAAVLTRTQADPVPRATRLPVEAKDCHIAQFKSLSPKELQAFKKAKDAIEKRLLEKDLRCSSHLFPRAWDLKQLQVQERPKALQAEVALTLKVWENMTDSALATILGQPLHTLSHIHSQLQTCTQLQATAEPRSPSRRLSRWLHRLQEAQSKETPGCLEASVTSNLFRLLTRDLKCVANGDQCV			lower	3H-thymidine incorporation (Mouse B cells; B cells stimulated with LPS or anti-IgM, IFNα 10 ng/ml, mouse IL-28 any concentration including 1000 ng/ml, 72 hrs): did not inhibit; 3H thymidine incorporation (Mouse B cells; B cells stimulated with anti-CD40 MAb): increased; Mx1 (expression relative to HPRT) [1]: 0.08; OAS (expression relative to HPRT) [1]: 0.04; PkR (expression relative to HPRT) [1]: 0.02
